B1: Centrosome-associated zinc finger protein Cp190 (Drosophila melanogaster (Fruit fly)), Q24478 (parent)
chain: MGEVKSVKVDNWGVFFLQKLQNFFNKTDYCDLTLQFRDNSQLKVHRLVLSACTDYFNVLEQTCEIVDDALIMPNEFQADVVVPIVNFMYTGTLEFELKMYGKLLRTAKEMNMTVLLKLLEAHRRTMENVNRQQRPPSPKGIRRRTVGQPSSGLPQQRVLGPSPQSRNVATPIAQRANTQRGSTGNTMSRTSGGSNRSPYGDSSNVKQEPTSPFEQLRKGYNNNKRPAQTSLLSPPSKKPSLEEVKEFAEQQRMRKQIAAEYGDNDPEYDGGMLYDDVHAGDDDDDDMPPQPSTSKQQSPQGTQTQLEHGSTTIILKQDSPSQTPTIIVKDSSNAKLNHTKIIAEVLRQYPHIVKGHKNIKLKIMPNTPAAPTEKSAPATVKPPANQSSATTSPHKKLHVSFKADKSTPLITAQQKAASSQQKSGTSQTTGNQGTGANPPANTAAAQKRRIDSKTMHALIAQGAENTTGPWLCLRCGVNGRPISIPSYRGFRRHLINTHKETIDPALCEHCGWRSVNNRELHFHMYMEHQTKSLLYTFAECALCNQSYRTKGELEAHINEVHTDDNKQQCIYCNKVFEQELQLYRHMKSYHKEQALEDGIIDETDEEFLGSQDEEEEAEGDEEQEPEQTGKVRILSDISLPATSAITVQQAQQEQLQEEDVEQVQQEVKFVGADGNEVELTDEQRKEILSQLNQQQAGATAGGVVMVLSEPEAEHVKQETDEKSLAGTEEEYDDSQIYSELGAADSVESAKKNIADESKESIDNLEWAENLIAESEEQSNKEPKSDKPRDDISEKLKELTGDWTEDENDDDVDDKPATAELASELANKDPEPTVHEEEDDIDLALQSLHKGPEEATEEKASEESVTSADDAVDAVPNINSQPEKMDVDSEAADEKASKAEVQIKKEAELENDQEEFIKEDSPIPHSDSVAELREAVTASEGEDDVHLEADNIRKELLDELIAEAEKPDQEKDIVQSEENATTEALDRSVTDEDDLVPPTQVSTEQMEIDEPAAEKAAENNEDTRTADEKEAVEDKPNQTQDVTTAEKPTLESAKAGDEATSGEAASVDKVKSLISEWGDDDEDEDENGVSAAAKEEL
partner: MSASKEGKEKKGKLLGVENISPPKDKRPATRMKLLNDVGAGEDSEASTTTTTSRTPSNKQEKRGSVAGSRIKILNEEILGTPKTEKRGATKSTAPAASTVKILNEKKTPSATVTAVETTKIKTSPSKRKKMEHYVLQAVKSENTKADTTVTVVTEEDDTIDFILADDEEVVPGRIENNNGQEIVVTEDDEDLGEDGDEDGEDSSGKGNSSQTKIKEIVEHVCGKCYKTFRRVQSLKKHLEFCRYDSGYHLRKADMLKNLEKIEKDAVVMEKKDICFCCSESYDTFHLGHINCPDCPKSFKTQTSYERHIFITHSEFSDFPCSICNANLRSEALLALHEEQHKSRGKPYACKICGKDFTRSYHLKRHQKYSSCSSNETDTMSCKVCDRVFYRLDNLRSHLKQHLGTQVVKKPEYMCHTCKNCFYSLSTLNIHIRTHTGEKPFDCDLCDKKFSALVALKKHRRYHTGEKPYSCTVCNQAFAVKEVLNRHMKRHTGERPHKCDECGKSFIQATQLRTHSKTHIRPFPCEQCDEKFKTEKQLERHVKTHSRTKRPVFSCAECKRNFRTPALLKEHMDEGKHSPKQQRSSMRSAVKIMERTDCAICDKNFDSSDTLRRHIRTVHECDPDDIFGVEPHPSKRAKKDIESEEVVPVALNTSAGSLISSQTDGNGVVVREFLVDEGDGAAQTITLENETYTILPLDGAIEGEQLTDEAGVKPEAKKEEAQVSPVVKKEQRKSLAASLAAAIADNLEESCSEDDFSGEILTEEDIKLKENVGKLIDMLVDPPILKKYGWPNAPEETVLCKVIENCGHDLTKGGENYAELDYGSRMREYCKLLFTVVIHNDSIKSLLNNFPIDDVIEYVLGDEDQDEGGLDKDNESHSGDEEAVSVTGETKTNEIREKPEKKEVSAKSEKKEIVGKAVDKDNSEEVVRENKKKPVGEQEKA
B2: Centrosome-associated zinc finger protein Cp190 (Drosophila melanogaster (Fruit fly)), Q24478 (parent)
chain: B1 chain
partner: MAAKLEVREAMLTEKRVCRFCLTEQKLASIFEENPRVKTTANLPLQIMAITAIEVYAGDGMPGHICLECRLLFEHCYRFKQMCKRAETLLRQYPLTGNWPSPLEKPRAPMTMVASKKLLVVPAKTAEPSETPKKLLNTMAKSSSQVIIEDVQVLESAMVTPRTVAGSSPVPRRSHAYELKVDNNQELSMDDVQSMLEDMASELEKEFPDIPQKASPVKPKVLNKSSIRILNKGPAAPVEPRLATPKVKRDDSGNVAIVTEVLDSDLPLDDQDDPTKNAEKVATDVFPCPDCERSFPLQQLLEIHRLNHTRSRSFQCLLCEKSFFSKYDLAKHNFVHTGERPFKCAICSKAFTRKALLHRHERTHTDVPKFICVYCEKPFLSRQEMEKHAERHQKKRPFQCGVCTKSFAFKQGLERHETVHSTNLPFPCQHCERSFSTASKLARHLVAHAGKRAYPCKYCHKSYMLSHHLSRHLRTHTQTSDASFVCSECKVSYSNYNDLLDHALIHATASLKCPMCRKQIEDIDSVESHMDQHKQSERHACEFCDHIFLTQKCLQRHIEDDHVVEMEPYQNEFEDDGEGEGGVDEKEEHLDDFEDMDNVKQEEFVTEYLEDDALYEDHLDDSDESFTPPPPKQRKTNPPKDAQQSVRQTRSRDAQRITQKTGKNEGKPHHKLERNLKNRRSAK

Variants of: B1
Settings: with suhw_drome su(Hw)

| Variant | effect of a mutation on the interaction |
| --- | --- |
| V114A | with no effect |
| V114N | with no effect |
| K19A | with no effect |
| K117S | with no effect |
| V7A | with no effect |

Variants of: B1
Settings: with suhw_drome su(Hw)
Remark: another data set of the same source

| Variant | effect of a mutation on the interaction |
| --- | --- |
| V114A | disrupting interaction strength |
| V114N | disrupting interaction strength |
| L118A | disrupting interaction strength |
| K19A | disrupting interaction strength |
| K117S | disrupting interaction strength |
| F15A | disrupting interaction strength |

Variants of: B1
Settings: with suhw_drome su(Hw)
Remark: another data set of the same source

| Variant | effect of a mutation on the interaction |
| --- | --- |
| L118A | with no effect |
| F15A | with no effect |

Variants of: B1
Settings: with suhw_drome su(Hw)
Remark: another data set of the same source

| Variant | effect of a mutation on the interaction |
| --- | --- |
| V7A | disrupting interaction strength |

Variants of: B2
Settings: with pita_drome pita

| Variant | effect of a mutation on the interaction |
| --- | --- |
| K117S | with no effect |
| F15A | with no effect |
| L118A | with no effect |
| K19A | with no effect |
| V114A | with no effect |
| V114N | with no effect |

Variants of: B2
Settings: with pita_drome pita
Remark: another data set of the same source

| Variant | effect of a mutation on the interaction |
| --- | --- |
| K117S | disrupting interaction strength |
| F15A | disrupting interaction strength |
| K19A | disrupting interaction strength |
| V114A | disrupting interaction strength |
| V114N | disrupting interaction strength |

Variants of: B2
Settings: with pita_drome pita
Remark: another data set of the same source

| Variant | effect of a mutation on the interaction |
| --- | --- |
| L118A | disrupting interaction strength |
| V7A | disrupting interaction strength |

Variants of: B2
Settings: with pita_drome pita
Remark: another data set of the same source

| Variant | effect of a mutation on the interaction |
| --- | --- |
| V7A | with no effect |

Reference: IntAct's records for PubMed 34830280
